# Measurements from article PMC12170943.
# pKd: −log10 of the molar value.
# Test system: OmpRAc (phosphorylated by EnvZAcC) (Acidovorax citrulli xjL12 (group II))
# Assay: MST
# Conditions: EMSA: 10 mM Tris-HCl pH 7.4, 50 mM KCl, 50 mM MgCl2, 5% glycerol, room temperature 20 min, 50 ng probe in 20 uL, MST: 50 mM Tris-HCl pH 7.4, 150 mM NaCl
substance,measurement,value
PhrpG Cy5 probe (MST),pKd,5.24
